# Starred links: 1 amine or outer side, 2 acyl side, 3 side chain; linkers in the order of their positions; H or OH if unused. Positions of bridges follow the written chain, without caps; N, C: chain ends. Non-standard residues stand in square brackets, D forms with d. No end group written: not given here. KCOmeglumine = N6-(methyl-((2S,3R,4R,5R)-2,3,4,5,6-pentahydroxyhexyl)carbamoyl)-L-lysine, CN(C[C@H](O)[C@@H](O)[C@H](O)[C@H](O)CO)C(=O)NCCCC[C@H](N[*:1])C(=O)[*:2]; KCOpipzaa = N6-(4-(carboxymethyl)piperazine-1-carbonyl)-L-lysine, O=C(NCCCC[C@H](N[*:1])C(=O)[*:2])N1CCN(CC(=O)[*:3])CC1; OCOmPEG10000 = methoxypolyethyleneglycol (10000) carbonate on Lys NZ; Trp(7-aza) = N[C@@H](Cc1c[nH]c2ncccc12)C(=O)O; 1Nal = N[C@@H](Cc1cccc2ccccc12)C(=O)O; Gly(NCH2CH2Ph) = O=C(O)CNCCc1ccccc1; 4Pal = N[C@@H](Cc1ccncc1)C(=O)O
# B1: TGFb1_003 (peptide)
# peptide: {CH2CO}-FWVVNVYDD[Gly(NCH2CH2Ph)]V[1Nal]YHVCG
# modifications: thioether N-16
# notes: cyclic peptide; C-terminal G is a linker
# B2: TGFb1_018 (peptide)
# peptide: {CH2CO}-F[Trp(7-aza)]VVNV[4Pal]D[KCOmeglumine][Gly(NCH2CH2Ph)]V[1Nal]YHVCG-NH2
# modifications: thioether N-16
# SMILES: CC(C)[C@@H]1NC(=O)CN(CCc2ccccc2)C(=O)[C@H](CCCCNC(=O)N(C)C[C@H](O)[C@@H](O)[C@H](O)[C@H](O)CO)NC(=O)[C@H](CC(=O)O)NC(=O)[C@H](Cc2ccncc2)NC(=O)[C@H](C(C)C)NC(=O)[C@H](CC(N)=O)NC(=O)[C@H](C(C)C)NC(=O)[C@H](C(C)C)NC(=O)[C@H](Cc2c[nH]c3ncccc23)NC(=O)[C@H](Cc2ccccc2)NC(=O)CSC[C@@H](C(=O)NCC(N)=O)NC(=O)[C@H](C(C)C)NC(=O)[C@H](Cc2c[nH]cn2)NC(=O)[C@H](Cc2ccc(O)cc2)NC(=O)[C@H](Cc2cccc3ccccc23)NC1=O
# notes: as for B1
# B3: TGFb1_017 (peptide)
# peptide: {CH2CO}-F[Trp(7-aza)]VVNV[4Pal]D[KCOpipzaa][Gly(NCH2CH2Ph)]V[1Nal]YHVCG-NH2
# modifications: thioether N-16
# SMILES: CC(C)[C@@H]1NC(=O)CN(CCc2ccccc2)C(=O)[C@H](CCCCNC(=O)N2CCN(CC(=O)O)CC2)NC(=O)[C@H](CC(=O)O)NC(=O)[C@H](Cc2ccncc2)NC(=O)[C@H](C(C)C)NC(=O)[C@H](CC(N)=O)NC(=O)[C@H](C(C)C)NC(=O)[C@H](C(C)C)NC(=O)[C@H](Cc2c[nH]c3ncccc23)NC(=O)[C@H](Cc2ccccc2)NC(=O)CSC[C@@H](C(=O)NCC(N)=O)NC(=O)[C@H](C(C)C)NC(=O)[C@H](Cc2c[nH]cn2)NC(=O)[C@H](Cc2ccc(O)cc2)NC(=O)[C@H](Cc2cccc3ccccc23)NC1=O
# notes: as for B1
# B4: TGFb1_016 (peptide)
# peptide: {CH2CO}-F[1Nal]VVNV[4Pal]DD[Gly(NCH2CH2Ph)]V[1Nal]YH[KCOmeglumine]CG-NH2
# modifications: thioether N-16
# SMILES: CC(C)[C@@H]1NC(=O)CN(CCc2ccccc2)C(=O)[C@H](CC(=O)O)NC(=O)[C@H](CC(=O)O)NC(=O)[C@H](Cc2ccncc2)NC(=O)[C@H](C(C)C)NC(=O)[C@H](CC(N)=O)NC(=O)[C@H](C(C)C)NC(=O)[C@H](C(C)C)NC(=O)[C@H](Cc2cccc3ccccc23)NC(=O)[C@H](Cc2ccccc2)NC(=O)CSC[C@@H](C(=O)NCC(N)=O)NC(=O)[C@H](CCCCNC(=O)N(C)C[C@H](O)[C@@H](O)[C@H](O)[C@H](O)CO)NC(=O)[C@H](Cc2c[nH]cn2)NC(=O)[C@H](Cc2ccc(O)cc2)NC(=O)[C@H](Cc2cccc3ccccc23)NC1=O
# notes: as for B1
# B5: TGFb1_028 (peptide)
# peptide: {CH2CO}-F[1Nal]V[KCOmeglumine]NV[4Pal]DD[Gly(NCH2CH2Ph)]V[1Nal]YHECG-NH2
# modifications: thioether N-16
# SMILES: CC(C)[C@@H]1NC(=O)CN(CCc2ccccc2)C(=O)[C@H](CC(=O)O)NC(=O)[C@H](CC(=O)O)NC(=O)[C@H](Cc2ccncc2)NC(=O)[C@H](C(C)C)NC(=O)[C@H](CC(N)=O)NC(=O)[C@H](CCCCNC(=O)N(C)C[C@H](O)[C@@H](O)[C@H](O)[C@H](O)CO)NC(=O)[C@H](C(C)C)NC(=O)[C@H](Cc2cccc3ccccc23)NC(=O)[C@H](Cc2ccccc2)NC(=O)CSC[C@@H](C(=O)NCC(N)=O)NC(=O)[C@H](CCC(=O)O)NC(=O)[C@H](Cc2c[nH]cn2)NC(=O)[C@H](Cc2ccc(O)cc2)NC(=O)[C@H](Cc2cccc3ccccc23)NC1=O
# notes: as for B1
# B6: TGFb1_029 (peptide)
# peptide: {CH2CO}-F[1Nal]V[KCOmeglumine]NV[4Pal]DE[Gly(NCH2CH2Ph)]V[1Nal]YHECG-NH2
# modifications: thioether N-16
# SMILES: CC(C)[C@@H]1NC(=O)CN(CCc2ccccc2)C(=O)[C@H](CCC(=O)O)NC(=O)[C@H](CC(=O)O)NC(=O)[C@H](Cc2ccncc2)NC(=O)[C@H](C(C)C)NC(=O)[C@H](CC(N)=O)NC(=O)[C@H](CCCCNC(=O)N(C)C[C@H](O)[C@@H](O)[C@H](O)[C@H](O)CO)NC(=O)[C@H](C(C)C)NC(=O)[C@H](Cc2cccc3ccccc23)NC(=O)[C@H](Cc2ccccc2)NC(=O)CSC[C@@H](C(=O)NCC(N)=O)NC(=O)[C@H](CCC(=O)O)NC(=O)[C@H](Cc2c[nH]cn2)NC(=O)[C@H](Cc2ccc(O)cc2)NC(=O)[C@H](Cc2cccc3ccccc23)NC1=O
# notes: as for B1
# B7: TGFb1_027 (peptide)
# peptide: {CH2CO}-F[1Nal]VVNV[4Pal]DD[Gly(NCH2CH2Ph)]V[1Nal]YHECG-NH2
# modifications: thioether N-16
# SMILES: CC(C)[C@@H]1NC(=O)CN(CCc2ccccc2)C(=O)[C@H](CC(=O)O)NC(=O)[C@H](CC(=O)O)NC(=O)[C@H](Cc2ccncc2)NC(=O)[C@H](C(C)C)NC(=O)[C@H](CC(N)=O)NC(=O)[C@H](C(C)C)NC(=O)[C@H](C(C)C)NC(=O)[C@H](Cc2cccc3ccccc23)NC(=O)[C@H](Cc2ccccc2)NC(=O)CSC[C@@H](C(=O)NCC(N)=O)NC(=O)[C@H](CCC(=O)O)NC(=O)[C@H](Cc2c[nH]cn2)NC(=O)[C@H](Cc2ccc(O)cc2)NC(=O)[C@H](Cc2cccc3ccccc23)NC1=O
# notes: as for B1
# B8: TGFb1_032 (peptide)
# peptide: {CH2CO}-F[1Nal]VVNV[4Pal]DD[Gly(NCH2CH2Ph)]V[1Nal]YH[KCOpipzaa]CGK(OCOmPEG10000)-NH2
# modifications: thioether N-16
# notes: cyclic peptide; linker G K(OCOmPEG10000) at the C-terminus
# Target: T1, recombinant human TGF-β1 (R&D systems) (human, UniProt P01137 279-390)
# Experiment: cell-based or functional assay
# T1 sequence (P01137 279-390 limits assumed): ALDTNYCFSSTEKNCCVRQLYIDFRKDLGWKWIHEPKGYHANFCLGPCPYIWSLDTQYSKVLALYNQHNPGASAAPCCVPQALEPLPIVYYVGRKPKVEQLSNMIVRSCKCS
Binder,"SBE reporter % inhibition, peptide 0.075 nM [%]","SBE reporter % inhibition, peptide 0.75 nM [%]","SBE reporter % inhibition, peptide 7.5 nM [%]","SBE reporter % inhibition, peptide 75.0 nM [%]"
B1,1.6,65.2,97.3,98.8
B2,22.2,61,97.6,99.9
B3,21.7,60.2,97.2,100
B4,6.1,61,97.6,100

# Target: T1, recombinant human TGF-β1 (R&D systems)
# Experiment: cell-based or functional assay
# Remark: another data set of the same source
Binder,"SBE reporter % inhibition, peptide 0.062 nM [%]","SBE reporter % inhibition, peptide 0.185 nM [%]","SBE reporter % inhibition, peptide 0.56 nM [%]","SBE reporter % inhibition, peptide 1.7 nM [%]","SBE reporter % inhibition, peptide 5.0 nM [%]","SBE reporter % inhibition, peptide 15.0 nM [%]"
B5,0.94,6.17,20.4,47.6,73.9,91.7
B6,12,16.9,32.4,63.7,85.8,96.8
B7,2.53,9.14,28.4,59.4,84.9,95.5
B8,2.67,7.18,1.11,4.77,54,91.3

# Target: T1, recombinant human TGF-β1 (R&D systems)
# Experiment: SPR, TGF-β1 immobilised, single cycle kinetics
# Description: Subsequently, 50 μL of 60 mM EDC solution (Global Life Science Technologies Japan Co., Ltd.) and 50 μL of 650 mM NHS solution (Global Life Science Technologies Japan Co., Ltd.) were mixed. Next, the reaction was carried out at a flow rate of 10 μL/min for 420 seconds. Then, 150 μL of 0.2 μM TGF-β solution diluted in 10 mM acetic acid solution (pH 5.0) was prepared and reacted at a flow rate of 10 μL/min for 420 seconds to immobilize TGF-β on the CM3 sensor chip. TGF-β was human-derived TGF-β1 or β2 (recombinant human TGF-β1, 2) and was obtained from R&D systems. After immobilization, capping was performed by reacting with 1.0 M ethanolamine aqueous solution (Global Life Science Technologies Japan Co., Ltd.) at a flow rate of […] for 420 seconds.
# A liquid prepared by dissolving each peptide at 10 mM in DMSO solution was diluted with running buffer to prepare a peptide-dissolved solution at a final concentration of 10 μM. Subsequently, 50 nM, 25 nM, 12.5 nM, 5 nM, and 2.5 nM peptide solutions were prepared. Using the above samples, the kinetics of each peptide against TGF-β was obtained by SPR measurement.
# The kinetics evaluation model was Single Cycle Kinetics, and curve fitting was performed using Biacore T200 Evaluation Software Version 3.0 (Global Life Science Technologies Japan Co., Ltd.). The binding of various peptides to TGF-β was evaluated by performing least-squares curve fitting on the obtained sensorgram to calculate the KD value.
row,Binder,Kd [nM]
1,B1,0.72
2,B5,1.31
3,B6,0.94
4,B7,1.11
5,B2,1.42
6,B3,1.07
7,B4,0.97
8,B8,3.08

# Source: patent US20250034212A1, “PEPTIDE” (PEPTIDREAM INC., priority 2021, published 2025)
